# Measurements: patent publication US20180298070A1, “PEPTIDE COMPOUND” (Takeda Pharmaceutical Company Limited, published 2018)
# Non-standard residues stand in square brackets, D forms with d. Groups on a side chain read outwards from the residue. Primed or numbered codes have the meaning given here. No end group written: not given here. *: point of attachment. NMeY = CN[C@@H](Cc1ccc(O)cc1)C(=O)O; αMeF = C[C@](N)(Cc1ccccc1)C(=O)O; Lauroyl = CCCCCCCCCCCC(=O)*; dIva = CC[C@@](C)(N)C(=O)O; Iva = CC[C@](C)(N)C(=O)O; PEG2′ = not defined here; Dda = not defined here; Aib = CC(C)(N)C(=O)O
# Target: T1, human GIPR (human), P48546
# T1 chain: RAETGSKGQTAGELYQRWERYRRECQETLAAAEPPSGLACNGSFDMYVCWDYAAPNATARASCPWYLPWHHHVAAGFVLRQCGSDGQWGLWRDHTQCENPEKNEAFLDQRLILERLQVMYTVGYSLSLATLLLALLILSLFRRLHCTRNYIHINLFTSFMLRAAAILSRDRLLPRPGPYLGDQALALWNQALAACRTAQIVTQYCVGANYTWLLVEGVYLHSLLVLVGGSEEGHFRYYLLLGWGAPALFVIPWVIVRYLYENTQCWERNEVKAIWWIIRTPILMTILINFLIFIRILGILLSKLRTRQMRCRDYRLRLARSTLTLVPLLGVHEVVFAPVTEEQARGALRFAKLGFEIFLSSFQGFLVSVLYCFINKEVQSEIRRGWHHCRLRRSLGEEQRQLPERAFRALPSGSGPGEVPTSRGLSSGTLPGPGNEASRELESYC
# Experiment: not given
row,Binder,"Agonist activity (EC50, M)"
1,Y[Aib]EGTFISDYSK([PEG(2)-Lauroyl])ALDRIAQQDFVNWLLAQRPSSGAPPPS (ends and bridges not checked) [Compound 191],4.1e-12 M
2,Y[Aib]EGTFISDYSK([PEG(2)-Lauroyl])ALDR[Aib]AQQDFVNWLLAQRPSSGAPPPS (ends and bridges not checked) [Compound 205],3.4e-12 M
3,Y[Aib]EGTFISDYSK([PEG(2)-Lauroyl])ALDRIAQQD[αMeF]VNWLLAQRPSSGAPPPSR (ends and bridges not checked) [Compound 195],4.8e-12 M
4,[NMeY][Aib]EGTFISDYSI[dIva]LDRIAQ[Aib]NFVNW[Iva]LAQRPSSGAPPPSR (ends and bridges not checked) [Compound 92],1.3e-12 M
5,Y[Aib]EGTFISDYSK([PEG2′-Dda])ALDRIAQQDFVNWLLAQRPSSGAPPPSR (ends and bridges not checked) [Compound 188],3e-12 M
6,Y[Aib]EGTFISDYSK([PEG(2)-Lauroyl])ALDRIAQQSFVNWLLAQRPSSGAPPPS (ends and bridges not checked) [Compound 203],4.3e-12 M
7,Y[Aib]EGTFISDYSK([PEG(2)-Lauroyl])ALDRIAQQSFVNWLLAQRPSSGAPPPSR (ends and bridges not checked) [Compound 196],6.3e-12 M
8,Y[Aib]EGTFISDYSK([PEG2′-Lauroyl])ALDRIAQQSFVNW[Iva]LAQRPSSGAPPPS (not fully specified (C-terminus); ends and bridges not checked) [Compound 220],5.3e-12 M
9,[NMeY][Aib]EGTFISDYSIALDRIAQ[Aib]NFVNW[Iva]LAQRPSSGAPPPSR (not fully specified (C-terminus); ends and bridges not checked) [Compound 68],1.7e-12 M
10,Y[Aib]EGTFISDYSK([PEG(2)-Lauroyl])[dIva]LDRIAQQDFVNWLLAQRPSSGAPPPSR (ends and bridges not checked) [Compound 199],3.4e-11 M
11,Y[Aib]EGTFISDYSK([PEG(2)-Lauroyl])ALDRIHQQS[αMeF]VNW[Iva]LAQRPSSGAPPPS (not fully specified (C-terminus); ends and bridges not checked) [Compound 223],5.1e-12 M
12,Y[Aib]EGTFISDYSK([PEG(2)-Lauroyl])ALDRIAQQDFVN[αMeF]LLAQRPSSGAPPPSR (ends and bridges not checked) [Compound 194],3.5e-12 M
13,Y[Aib]EGTFISDYSK([PEG(2)-Lauroyl])ALDRIAQ[Aib]NFVNWLLAQRPSSGAPPPSR (ends and bridges not checked) [Compound 197],5.6e-12 M

# Target: T2, human GLP-1R (human), P43220
# T2 chain: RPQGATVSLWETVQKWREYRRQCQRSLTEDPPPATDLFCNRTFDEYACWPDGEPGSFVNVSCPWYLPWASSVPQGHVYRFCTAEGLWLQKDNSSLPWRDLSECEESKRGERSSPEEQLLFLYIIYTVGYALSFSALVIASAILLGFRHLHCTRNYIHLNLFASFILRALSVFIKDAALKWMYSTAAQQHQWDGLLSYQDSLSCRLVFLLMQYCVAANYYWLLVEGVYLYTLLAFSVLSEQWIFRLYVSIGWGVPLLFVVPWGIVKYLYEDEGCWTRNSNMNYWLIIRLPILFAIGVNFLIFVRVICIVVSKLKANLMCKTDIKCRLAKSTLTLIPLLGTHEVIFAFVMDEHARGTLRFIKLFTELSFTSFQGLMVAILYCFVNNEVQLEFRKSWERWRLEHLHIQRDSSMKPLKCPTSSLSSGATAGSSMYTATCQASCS
# Experiment: not given
row,Binder,"Agonist activity (EC50, M)"
1,Y[Aib]EGTFISDYSK([PEG(2)-Lauroyl])ALDRIAQQDFVNWLLAQRPSSGAPPPS (ends and bridges not checked) [Compound 191],5e-08 M
2,Y[Aib]EGTFISDYSK([PEG(2)-Lauroyl])ALDR[Aib]AQQDFVNWLLAQRPSSGAPPPS (ends and bridges not checked) [Compound 205],2.9e-08 M
3,Y[Aib]EGTFISDYSK([PEG(2)-Lauroyl])ALDRIAQQD[αMeF]VNWLLAQRPSSGAPPPSR (ends and bridges not checked) [Compound 195],1e-07 M
4,[NMeY][Aib]EGTFISDYSI[dIva]LDRIAQ[Aib]NFVNW[Iva]LAQRPSSGAPPPSR (ends and bridges not checked) [Compound 92],> 1e-06 M
5,Y[Aib]EGTFISDYSK([PEG2′-Dda])ALDRIAQQDFVNWLLAQRPSSGAPPPSR (ends and bridges not checked) [Compound 188],2e-07 M
6,Y[Aib]EGTFISDYSK([PEG(2)-Lauroyl])ALDRIAQQSFVNWLLAQRPSSGAPPPS (ends and bridges not checked) [Compound 203],> 1e-06 M
7,Y[Aib]EGTFISDYSK([PEG(2)-Lauroyl])ALDRIAQQSFVNWLLAQRPSSGAPPPSR (ends and bridges not checked) [Compound 196],4.4e-08 M
8,Y[Aib]EGTFISDYSK([PEG2′-Lauroyl])ALDRIAQQSFVNW[Iva]LAQRPSSGAPPPS (not fully specified (C-terminus); ends and bridges not checked) [Compound 220],9.9e-08 M
9,[NMeY][Aib]EGTFISDYSIALDRIAQ[Aib]NFVNW[Iva]LAQRPSSGAPPPSR (not fully specified (C-terminus); ends and bridges not checked) [Compound 68],3.5e-07 M
10,Y[Aib]EGTFISDYSK([PEG(2)-Lauroyl])[dIva]LDRIAQQDFVNWLLAQRPSSGAPPPSR (ends and bridges not checked) [Compound 199],> 1e-06 M
11,Y[Aib]EGTFISDYSK([PEG(2)-Lauroyl])ALDRIHQQS[αMeF]VNW[Iva]LAQRPSSGAPPPS (not fully specified (C-terminus); ends and bridges not checked) [Compound 223],> 1e-06 M
12,Y[Aib]EGTFISDYSK([PEG(2)-Lauroyl])ALDRIAQQDFVN[αMeF]LLAQRPSSGAPPPSR (ends and bridges not checked) [Compound 194],2.5e-08 M
13,Y[Aib]EGTFISDYSK([PEG(2)-Lauroyl])ALDRIAQ[Aib]NFVNWLLAQRPSSGAPPPSR (ends and bridges not checked) [Compound 197],1.1e-08 M

# Target: T1, human GIPR (human), P48546
# Experiment: [125I]GIP displacement, hGIPR VLP
row,Binder,IC50
1,Y[Aib]EGTFISDYSK([PEG(2)-Lauroyl])ALDRIAQQDFVNWLLAQRPSSGAPPPS (ends and bridges not checked) [Compound 191],2.7 nM
2,Y[Aib]EGTFISDYSK([PEG(2)-Lauroyl])ALDR[Aib]AQQDFVNWLLAQRPSSGAPPPS (ends and bridges not checked) [Compound 205],1.6 nM
3,Y[Aib]EGTFISDYSK([PEG(2)-Lauroyl])ALDRIAQQD[αMeF]VNWLLAQRPSSGAPPPSR (ends and bridges not checked) [Compound 195],2.3 nM
4,[NMeY][Aib]EGTFISDYSI[dIva]LDRIAQ[Aib]NFVNW[Iva]LAQRPSSGAPPPSR (ends and bridges not checked) [Compound 92],2.3 nM
5,Y[Aib]EGTFISDYSK([PEG2′-Dda])ALDRIAQQDFVNWLLAQRPSSGAPPPSR (ends and bridges not checked) [Compound 188],2.7 nM
6,Y[Aib]EGTFISDYSK([PEG(2)-Lauroyl])ALDRIAQQSFVNWLLAQRPSSGAPPPS (ends and bridges not checked) [Compound 203],2.1 nM
7,Y[Aib]EGTFISDYSK([PEG(2)-Lauroyl])ALDRIAQQSFVNWLLAQRPSSGAPPPSR (ends and bridges not checked) [Compound 196],2.4 nM
8,Y[Aib]EGTFISDYSK([PEG2′-Lauroyl])ALDRIAQQSFVNW[Iva]LAQRPSSGAPPPS (not fully specified (C-terminus); ends and bridges not checked) [Compound 220],2.9 nM
9,[NMeY][Aib]EGTFISDYSIALDRIAQ[Aib]NFVNW[Iva]LAQRPSSGAPPPSR (not fully specified (C-terminus); ends and bridges not checked) [Compound 68],2.4 nM
10,Y[Aib]EGTFISDYSK([PEG(2)-Lauroyl])[dIva]LDRIAQQDFVNWLLAQRPSSGAPPPSR (ends and bridges not checked) [Compound 199],2.4 nM
11,Y[Aib]EGTFISDYSK([PEG(2)-Lauroyl])ALDRIHQQS[αMeF]VNW[Iva]LAQRPSSGAPPPS (not fully specified (C-terminus); ends and bridges not checked) [Compound 223],3 nM
12,Y[Aib]EGTFISDYSK([PEG(2)-Lauroyl])ALDRIAQQDFVN[αMeF]LLAQRPSSGAPPPSR (ends and bridges not checked) [Compound 194],2.3 nM
13,Y[Aib]EGTFISDYSK([PEG(2)-Lauroyl])ALDRIAQ[Aib]NFVNWLLAQRPSSGAPPPSR (ends and bridges not checked) [Compound 197],2.6 nM
